Experimental data reported in PMC4626060 (Molecular Biology of the Cell, 2015).

T1: full-length glutathione S-transferase (GST)-Mps1 (UniProt P33981 1-857)
T1 sequence: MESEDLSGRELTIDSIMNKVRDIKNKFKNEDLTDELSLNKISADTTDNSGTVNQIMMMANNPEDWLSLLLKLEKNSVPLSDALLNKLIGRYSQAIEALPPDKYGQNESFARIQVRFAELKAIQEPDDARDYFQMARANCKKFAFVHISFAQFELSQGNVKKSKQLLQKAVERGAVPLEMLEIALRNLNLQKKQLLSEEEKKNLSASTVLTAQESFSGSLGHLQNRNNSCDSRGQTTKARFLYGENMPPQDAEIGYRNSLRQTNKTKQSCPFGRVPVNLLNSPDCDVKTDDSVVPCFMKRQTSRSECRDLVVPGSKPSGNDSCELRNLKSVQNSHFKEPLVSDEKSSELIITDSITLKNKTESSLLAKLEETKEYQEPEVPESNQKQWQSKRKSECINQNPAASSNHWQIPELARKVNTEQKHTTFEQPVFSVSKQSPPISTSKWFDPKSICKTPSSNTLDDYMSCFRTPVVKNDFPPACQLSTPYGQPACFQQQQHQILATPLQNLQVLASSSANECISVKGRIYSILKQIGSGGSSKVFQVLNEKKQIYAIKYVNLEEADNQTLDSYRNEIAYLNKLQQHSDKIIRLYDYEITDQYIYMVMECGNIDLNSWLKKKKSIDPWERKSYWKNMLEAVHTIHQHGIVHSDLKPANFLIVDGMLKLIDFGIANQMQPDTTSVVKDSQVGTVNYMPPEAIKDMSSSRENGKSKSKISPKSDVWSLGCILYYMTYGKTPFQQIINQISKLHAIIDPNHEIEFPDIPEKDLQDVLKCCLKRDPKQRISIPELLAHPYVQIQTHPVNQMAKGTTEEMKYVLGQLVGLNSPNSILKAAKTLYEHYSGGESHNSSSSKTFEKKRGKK


Biological target: T1, full-length glutathione S-transferase …
Assay: pull-down

Binder | fold binding to GST-Mps1 with 5 mM MgCl2 against without [fold] | fold binding to GST-Mps1 on coincubation with Cetn3 against Cetn2 alone [fold]
recombinant His-Cetn3 (natural protein) MSLALRSELVVDKTKRKKRRELSEEQKQEIKDAFELFDTDKDEAIDYHELKVAMRALGFDVKKADVLKILKDYDREATGKITFEDFNEVVTDWILERDPHEEILKAFKLFDDDDSGKISLRNLRRVARELGENMSDEELRAMIEEFDKDGDGEINQEEFIAIMTGDI | 2.59 ± 0.91 | 
recombinant His-Cetn2 (natural protein) MASNFKKANMASSSQRKRMSPKPELTEEQKQEIREAFDLFDADGTGTIDVKELKVAMRALGFEPKKEEIKKMISEIDKEGTGKMNFGDFLTVMTQKMSEKDTKEEILKAFKLFDDDETGKISFKNLKRVAKELGENLTDEELQEMIDEADRDGDGEVSEQEFLRIMKKTSLY |  | 3.39 ± 1.96
